# Data taken from patent US20230365642A1 (published 2023).
# T1: IL13Rα2 Protein, Human, Recombinant, His Tag (human, UniProt Q14627 27-343)
# T1 chain: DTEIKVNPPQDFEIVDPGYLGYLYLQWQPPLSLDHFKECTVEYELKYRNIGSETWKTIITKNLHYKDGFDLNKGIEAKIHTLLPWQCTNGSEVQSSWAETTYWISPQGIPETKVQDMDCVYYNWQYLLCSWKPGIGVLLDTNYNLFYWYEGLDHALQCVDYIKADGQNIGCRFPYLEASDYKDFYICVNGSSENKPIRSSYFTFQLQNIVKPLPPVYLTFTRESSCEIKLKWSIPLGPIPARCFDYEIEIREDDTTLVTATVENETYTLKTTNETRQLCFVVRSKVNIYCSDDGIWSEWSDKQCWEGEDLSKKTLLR
# T2: IL13Rα Protein, Human, Recombinant, His Tag (human IL13Rα1) (human, UniProt P78552 22-343)
# T2 chain: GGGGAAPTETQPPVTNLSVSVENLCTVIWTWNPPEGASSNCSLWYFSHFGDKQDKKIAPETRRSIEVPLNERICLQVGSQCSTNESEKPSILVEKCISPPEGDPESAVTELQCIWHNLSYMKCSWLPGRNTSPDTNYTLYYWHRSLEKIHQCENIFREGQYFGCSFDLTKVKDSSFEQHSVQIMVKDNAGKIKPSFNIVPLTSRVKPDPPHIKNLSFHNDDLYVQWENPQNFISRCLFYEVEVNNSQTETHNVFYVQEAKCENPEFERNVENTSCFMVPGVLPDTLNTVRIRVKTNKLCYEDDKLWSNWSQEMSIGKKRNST
# T3: IL2R beta (CD122) (UniProt P14784 27-239)
# T3 chain: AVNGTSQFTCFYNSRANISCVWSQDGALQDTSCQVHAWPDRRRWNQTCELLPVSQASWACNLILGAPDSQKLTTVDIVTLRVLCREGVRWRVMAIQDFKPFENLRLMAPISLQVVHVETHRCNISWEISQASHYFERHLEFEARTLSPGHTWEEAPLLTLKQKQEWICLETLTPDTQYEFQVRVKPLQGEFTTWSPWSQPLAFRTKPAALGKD
# T4: IL2R alpha (CD25) (UniProt P01589 22-213)
# T4 chain: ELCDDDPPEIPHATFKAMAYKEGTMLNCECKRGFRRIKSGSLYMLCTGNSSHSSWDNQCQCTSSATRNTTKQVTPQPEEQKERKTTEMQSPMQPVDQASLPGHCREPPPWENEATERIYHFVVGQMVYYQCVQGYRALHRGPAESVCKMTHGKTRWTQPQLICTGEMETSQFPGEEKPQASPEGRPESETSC
# Columns and labels:
# MDNA109-Alb (2nd Gen.) = assay: BLI
# MDNA19 (3rd Gen.) = assay: BLI
# MDNA109 (1st Gen.) = assay: BLI
# [1] = biological target: T1, IL13Rα2 Protein, Human, Recombinant, …; assay: SPR; kinetic
# [2] = biological target: T2, IL13Rα Protein, Human, Recombinant, His …; assay: SPR; equilibrium
# [3] = biological target: T2, IL13Rα Protein, Human, Recombinant, His …; assay: SPR; kinetic
# [4] = biological target: T1, IL13Rα2 Protein, Human, Recombinant, …; assay: SPR; equilibrium
# IL2R beta (CD122) = biological target: T3, IL2R beta (CD122); assay: BLI
# IL2R alpha (CD25) = biological target: T4, IL2R alpha (CD25); assay: BLI
Binder,Kd [1],Kd [2],Kd [3],also measured
CD122 (IL-2Rβ) (receptor) AVNGTSQFTCFYNSRANISCVWSQDGALQDTSCQVHAWPDRRRWNQTCELLPVSQASWACNLILGAPDSQKLTTVDIVTLRVLCREGVRWRVMAIQDFKPFENLRLMAPISLQVVHVETHRCNISWEISQASHYFERHLEFEARTLSPGHTWEEAPLLTLKQKQEWICLETLTPDTQYEFQVRVKPLQGEFTTWSPWSQPLAFRTKPAALGKD,–,–,–,Kd (MDNA109-Alb (2nd Gen.)): 3.5 nM; Kd (MDNA19 (3rd Gen.)): 2.1 nM; Kd (MDNA109 (1st Gen.)): 1.8 nM
C12 (protein) PGPVPPSTAHRELIEELVNITQNQKAPLCNGSMVWSINLTAGMYCAALESLINVSGCSAIEKTQRMLSGFCPHKVSAGQFSSLHVMDSRIEVAQFVKDLLNHLRALFKEGQFN,0.053 nM,15 µM,–,–
C11 (protein) PGPVPPSTAHRELIEELVNITQNQKAPLCNGSMVWSINLTAGMYCAALESLINVSGCSAIEKTQRMLSGFCPHKVSAGQFSSLHVTGRKIEVAQFVKDLLLHLKKLFKEGQFN,0.0001 nM,3.6 µM,–,–
A7 (protein) PGPVPPSTAIRELIEELINITQNQKAPLCNGSMVWSINLTAGMYCAALESLINVSGCSAIEKTQRMLSGFCPHKVSAGQFSSLHVRGSKIEVAQFVKDLLHHLRALFREGQFN,0.218 nM,–,1.18 nM,–
C10 (protein) PGPVPPSTAHLELIEELINITQNQKAPLCNGSMVWSINLTAGMYCAALESLINVSGCSAIEKTQRMLSGFCPHKVSAGQFSSLHVMDTRIEVAQFVKDLLLHLKKLFKEGQFN,5 nM,0.264 µM,–,–
B2 (protein) PGPVPPSTALRELIEELINITQNQKAPLCNGSMVWSINLTAGMYCAALESLINVSGCSAIEKTQRMLSGFCPHKVSAGQFSSLHVTGSKIEVAQFVKDLLYHLRALFREGQFN,1.5 nM,–,0.275 nM,–
A8 (protein) PGPVPPSTAIRELIEELINITQNQKAPLCNGSMVWSINLTAGMYCAALESLINVSGCSAIEKTQRMLSGFCPHKVSAGQFSSLHVRSSRIEVAQFVKDLLHHLRTLFREGQFN,0.263 nM,–,2.06 nM,–
B6 (protein) PGPVPPSTATRELIEELINITQNQKAPLCNGSMVWSINLTAGMYCAALESLINVSGCSAIEKTQRMLSGFCPHKVSAGQFSSLHVRGSKIEVAQFVKDLLYHLRTLFREGQFN,–,–,5.9 nM,Kd [4]: 53 nM
A11 (protein) PGPVPPSTAVRELIEELINITQNQKAPLCNGSMVWSINLTAGMYCAALESLINVSGCSAIEKTQRMLSGFCPHKVSAGQFSSLHVRSSKIEVAQFVKDLLFHLRTLFREGQFN,0.391 nM,–,0.084 nM,–
C7 (protein) PGPVPPSTALSELMEELVNITQNQKAPLCNGSMVWSINLTAGMYCAALESLINVSGCSAIEKTQRMLSGFCPHKVSAGQFSSLHVRDSKIEVAQFVKDLLNHLKALFKEGQFN,0.272 nM,35 µM,–,–
A6 (protein) PGPVPPSTAIRELIEELLNITQNQKAPLCNGSMVWSINLTAGMYCAALESLINVSGCSAIEKTQRMLSGFCPHKVSAGQFSSLHVMKSKIEVAQFVKDLLHHLRALFREGQFN,0.267 nM,–,1.9 nM,–
C2 (protein) PGPVPPSTADIELIEELINITQNQKAPLCNGSMVWSINLTAGMYCAALESLINVSGCSAIEKTQRMLSGFCPHKVSAGQFSSLHVKKTRIEVAQFVKDLLLHLKKLFKEGQFN,0.025 nM,4 µM,–,–
CD25 (IL-2Rα) (receptor) ELCDDDPPEIPHATFKAMAYKEGTMLNCECKRGFRRIKSGSLYMLCTGNSSHSSWDNQCQCTSSATRNTTKQVTPQPEEQKERKTTEMQSPMQPVDQASLPGHCREPPPWENEATERIYHFVVGQMVYYQCVQGYRALHRGPAESVCKMTHGKTRWTQPQLICTGEMETSQFPGEEKPQASPEGRPESETSC,–,–,–,Kd (MDNA109-Alb (2nd Gen.)): 56 nM; Kd (MDNA109 (1st Gen.)): 26 nM
C9 (protein) PGPVPPSTAHLELIEELINITQNQKAPLCNGSMVWSINLTAGMYCAALESLINVSGCSAIEKTQRMLSGFCPHKVSAGQFSSLHVKETRIEVAQFVKDLLNHLKTLFKEGQFN,0.259 nM,31 µM,–,–
MDNA109-Fc (2nd Gen.) (protein) APTSSSTKKTQLQLEHLLLDLQMILNGINNYKNPKLTRMLTFKFYMPKKATELKHLQCLEEELKPLEEVLNLAQSKNFHFDPRDVVSNINVFVLELKGSETTFMCEYADETATIVEFLNRWITFCQSIISTLTGGGGSGGGGSGGGGSDKTHTCPPCPAPELLGGPSVFLFPPKPKDTLMISRTPEVTCVVVDVSHEDPEVKFNWYVDGVEVHNAKTKPREEYASTYRVVSVLTVLHQDWLNGKEYKCKVSNKALPAPIEKTISKAKGQPREPQVYTLPPSREEMTKNQVSLTCLVKGFYPSDIAVEWESNGQPENNYKTTPPVLDSDGSFFLYSKLTVDKSRWQQGNVFSCSVMHEALHNHYTQKSLSLSPGK,–,–,–,Kd (IL2R beta (CD122)): 2.7 nM; Kd (IL2R alpha (CD25)): 14 nM
A5 (protein) PGPVPPSTALIELIEELINITQNQKAPLCNGSMVWSINLTAGMYCAALESLINVSGCSAIEKTQRMLSGFCPHKVSAGQFSSLHVKGSKIEVAQFVKDLLHHLRALMREGQFN,–,–,2.94 nM,Kd [4]: 50 nM
C3 (protein) PGPVPPSTAARELIEELVNITQNQKAPLCNGSMVWSINLTAGMYCAALESLINVSGCSAIEKTQRMLSGFCPHKVSAGQFSSLHVTGKRIEVAQFVKDLLNHLRALFKEGQFN,0.379 nM,16 µM,–,–
B4 (protein) PGPVPPSTALSELIEELINITQNQKAPLCNGSMVWSINLTAGMYCAALESLINVSGCSAIEKTQRMLSGFCPHKVSAGQFSSLHVKGSMIEVAQFVKDLLYHLRTLFREGQFN,–,–,18 nM,Kd [4]: 108 nM
C4 (protein) PGPVPPSTAVRELIEELVNITQNQKAPLCNGSMVWSINLTAGMYCAALESLINVSGCSAIEKTQRMLSGFCPHKVSAGQFSSLHVRDTRIEVAQFVKDLLNHLKELFTEGQFN,0.393 nM,36 µM,–,–
D7 (protein) PGPVPPSTAARELIEELFNITQNQKAPLCNGSMVWSINLTAGMYCAALESLINVSGCSAIEKTQRMLSGFCPHKVSAGQFSSLHVKKTRIEVAQFVKDLLIHLRKLFKEGQFN,0.003 nM,4.1 µM,–,–
